Laboratory results from IntAct's records for PubMed 23949442.

B1: SNARE-associated protein Snapin (Homo sapiens), O95295 (parent)
chain: MAGAGSAAVSGAGTPVAGPTGRDLFAEGLLEFLRPAVQQLDSHVHAVRESQVELREQIDNLATELCRINEDQKVALDLDPYVKKLLNARRRVVLVNNILQNAQERLRRLNHSVAKETARRRAMLDSGIYPPGSPGK

Variants of: B1
Conditions: with snp25_rat Snap25, P60881
snp25_rat Snap25, P60881, sequence (P60881 whole entry, looked up): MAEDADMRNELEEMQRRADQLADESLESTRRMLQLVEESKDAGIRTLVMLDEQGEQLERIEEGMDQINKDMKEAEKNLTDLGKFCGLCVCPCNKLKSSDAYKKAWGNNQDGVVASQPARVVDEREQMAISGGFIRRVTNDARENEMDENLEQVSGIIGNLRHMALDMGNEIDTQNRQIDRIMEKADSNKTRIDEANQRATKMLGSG

| effect of a mutation on the interaction | Variant |
| --- | --- |
| decreasing interaction | MAGAGSAAVSGAGTPVAGPTGRDLFAEGLLEFLRPAVQQLDSHVHAVRESQVELREQIDNLATELCRINEDQKVALDLDPYVKKLLNARRRVVLVNNILQNAQERLRRLNHSVAKEDARRRAMLDSGIYPPGSPGK [T117D] |
